Measurements as given in US5118793A, “Modified heparin cofactor II” (Washington University, priority 1991, dated 1992).

Tests used:
thrombin [1] = assay: Inhibition of thrombin by rHCII, chromogenic substrate Chromozym TH, second-order rate constants; type: biochemical, human; settings: for Increase in the rate constant for thrombin inhibition produced by dermatan sulfate: dermatan sulfate versus no GAG; for Increase in the rate constant for thrombin inhibition produced by heparin: heparin versus no GAG
Procedure: (§1) Inhibition of proteases by rHCII--Protease inhibition by rHCII was determined by incubating 90 μl of the partially purified rHCII (or the corresponding heparin-Sepharose fractions of a control lysate from cells transformed with pMON-5840) with 5 μl of the protease and 5 μl of either glycosaminoglycan or water in a disposable polystyrene cuvette at room temperature. Final concentrations of the proteases were as follows: thrombin, 15 nM; chymotrypsin, 21 nM; factor Xa, 16 nM; and kallikrein, 10 nM. After a specified period of time from 5 seconds (s) to 150 min, 300-500 μl of the appropriate chromogenic substrate was added, and the absorbance at 405 nm was recorded continuously for 100 s. The rate of change of absorbance was proportional to the concentration of active protease remaining in the incubation. The amounts added and concentrations of each substrate were as follows: Chromozym TH (thrombin), 500 μl, 0.1 mM; N-succinyl-Ala-Ala-Pro-Phe-p-nitroanilde (chymotrypsin), 300 μl, 0.5 mM; Spectrozyme FXa (factor Xa), 400 μl, 0.125 mM; and S-2302 (kallikrein), 300 μl, 0.4 mM.
Protease inhibition by rHCII in the absence of a glycosaminoglycan--The time courses of inhibition of thrombin, factor Xa, kallikrein, and chymotrypsin by native rHCII(Leu444 →Arg) in the absence of a glycosaminoglycan are indicated in FIG. 3. The incubations were performed under pseudo-first-order conditions, such that the initial concentration of rHCII was greater than the concentration of protease. The pseudo-first-order rate constants (k1) for protease inhibition were determined by fitting the data to the following equation: k1 t=1n([P]0 /[P]t), in which [P]0 =initial prolease activity and [P]t =protease activity at time=t. The second-order rate constants (k2) were then calculated by dividing k by the initial rHCII concentration. It was observed that rHCII(Leu444 →Arg) inhibits thrombin almost 100 times more rapidly than native rHCII in the absence of a glycosaminoglycan Furthermore, rHCII(Leu444 →Arg) inhibits factor Xa and kallikrein, while inhibition of these proteases by native rHCII is undetectable.
Inhibition of thrombin by rHCII in the presence dermatan sulfate or heparin--The time course of inhibition of thrombin was determined in the presence of various concentrations of dermatan sulfate or heparin.

chymotrypsin = assay: Inhibition of chymotrypsin by rHCII, chromogenic substrate assay; type: biochemical, human
Procedure: as §1, with “The amounts added and concentrations of each substrate were as follows: Chromozym TH (thrombin), 500 μl, 0.1 mM; N-succinyl-Ala-Ala-Pro-Phe-p-nitroanilde (chymotrypsin), 300 μl, 0.5 mM; Spectrozyme FXa (factor Xa), 400 μl, 0.125 mM; and S-2302 (kallikrein), 300 μl, 0.4 mM.” left out
Protease inhibition by rHCII in the absence of a glycosaminoglycan--The time courses of inhibition of thrombin, factor Xa, kallikrein, and chymotrypsin by native rHCII(Leu444 →Arg) in the absence of a glycosaminoglycan are indicated in FIG. 3. […] The pseudo-first-order rate constants (k1) for protease inhibition were determined by fitting the data to the following equation: k1 t=1n([P]0 /[P]t), in which [P]0 =initial prolease activity and [P]t =protease activity at time=t. The second-order rate constants (k2) were then calculated by dividing k by the initial rHCII concentration. […]

thrombin [2] = settings: cited from earlier work

| Molecule | Increase in the rate constant for thrombin inhibition produced by dermatan sulfate (thrombin [1]) | Increase in the rate constant for thrombin inhibition produced by heparin (thrombin [1]) | Effect of dermatan sulfate on the rate of inhibition of chymotrypsin (chymotrypsin) | Increase of the rate of thrombin inhibition by heparin and dermatan sulfate (thrombin [2]) |
| --- | --- | --- | --- | --- |
| native rHCII: recombinant full-length heparin cofactor II expressed in E. coli; amino acid sequence identical to HCII purified from human plasma (protein, UniProt P05546 20-499, looked up, recombinant, E. coli) Heparin cofactor 2: GSKGPLDQLEKGGETAQSADPQWEQLNNKNLSMPLLPADFHKENTVTNDWIPEGEEDDDYLDLEKIFSEDDDYIDIVDSLSVSPTDSDVSAGNILQLFHGKSRIQRLNILNAKFAFNLYRVLKDQVNTFDNIFIAPVGISTAMGMISLGLKGETHEQVHSILHFKDFVNASSKYEITTIHNLFRKLTHRLFRRNFGYTLRSVNDLYIQKQFPILLDFKTKVREYYFAEAQIADFSDPAFISKTNNHIMKLTKGLIKDALENIDPATQMMILNCIYFKGSWVNKFPVEMTHNHNFRLNEREVVKVSMMQTKGNFLAANDQELDCDILQLEYVGGISMLIVVPHKMSGMKTLEAQLTPRVVERWQKSMTNRTREVLLPKFKLEKNYNLVESLKLMGIRMLFDKNGNMAGISDQRIAIDLFKHQGTITVNEEGTQATTVTTVGFMPLSTQVRFTVDRPFLFLIYEHRTSCLLFMGRVANPSRS | ~3500 fold | about 40 fold | does not significantly increase | – |
| HCII: heparin cofactor II, a 65,600 dalton plasma glycoprotein, serpin that inhibits thrombin (protein, UniProt P05546 20-499, looked up) Heparin cofactor 2: GSKGPLDQLEKGGETAQSADPQWEQLNNKNLSMPLLPADFHKENTVTNDWIPEGEEDDDYLDLEKIFSEDDDYIDIVDSLSVSPTDSDVSAGNILQLFHGKSRIQRLNILNAKFAFNLYRVLKDQVNTFDNIFIAPVGISTAMGMISLGLKGETHEQVHSILHFKDFVNASSKYEITTIHNLFRKLTHRLFRRNFGYTLRSVNDLYIQKQFPILLDFKTKVREYYFAEAQIADFSDPAFISKTNNHIMKLTKGLIKDALENIDPATQMMILNCIYFKGSWVNKFPVEMTHNHNFRLNEREVVKVSMMQTKGNFLAANDQELDCDILQLEYVGGISMLIVVPHKMSGMKTLEAQLTPRVVERWQKSMTNRTREVLLPKFKLEKNYNLVESLKLMGIRMLFDKNGNMAGISDQRIAIDLFKHQGTITVNEEGTQATTVTTVGFMPLSTQVRFTVDRPFLFLIYEHRTSCLLFMGRVANPSRS | – | – | – | ~ 1000 fold |
| rHCII(Leu444 →Arg): heparin cofactor II in which the leucine residue at position 444 is replaced by arginine; recombinant, expressed in E. coli (protein, UniProt P05546 20-499, looked up, variant L444R, recombinant, E. coli-expressed, heparin cofactor II in which the leucine residue at position 444 is replaced by arginine; recombinant, expressed in E. coli) Heparin cofactor 2: GSKGPLDQLEKGGETAQSADPQWEQLNNKNLSMPLLPADFHKENTVTNDWIPEGEEDDDYLDLEKIFSEDDDYIDIVDSLSVSPTDSDVSAGNILQLFHGKSRIQRLNILNAKFAFNLYRVLKDQVNTFDNIFIAPVGISTAMGMISLGLKGETHEQVHSILHFKDFVNASSKYEITTIHNLFRKLTHRLFRRNFGYTLRSVNDLYIQKQFPILLDFKTKVREYYFAEAQIADFSDPAFISKTNNHIMKLTKGLIKDALENIDPATQMMILNCIYFKGSWVNKFPVEMTHNHNFRLNEREVVKVSMMQTKGNFLAANDQELDCDILQLEYVGGISMLIVVPHKMSGMKTLEAQLTPRVVERWQKSMTNRTREVLLPKFKLEKNYNLVESLKLMGIRMLFDKNGNMAGISDQRIAIDLFKHQGTITVNEEGTQATTVTTVGFMPRSTQVRFTVDRPFLFLIYEHRTSCLLFMGRVANPSRS | much smaller effect | minimal effect | – | – |
